This note sets out measurements from patent US20120253009A1.

B1: Fc-Loop-(SEQ ID NO: 8) (Fc fusion, part only; not given: Fc-Loop scaffold and insertion site, part only)
chain, part: CSSGGPTLREWQQCSRAQ
modifications: disulfide 1-14 (inferred); also: inserted into an Fc-Loop, Fc, site and spacers not given here
B2: Fc-Loop-(SEQ ID NO: 10) (Fc fusion, part only; not given: Fc-Loop scaffold and insertion site, part only)
chain, part: CSSGGPTLREWQQCGRAQ
modifications: disulfide 1-14 (inferred); also: inserted into an Fc-Loop, Fc, site and spacers not given here
B3: Fc-Loop-(SEQ ID NO: 9) (Fc fusion, part only; not given: Fc-Loop scaffold and insertion site, part only)
chain, part: CSSGGPTLREWQQCQRAQ
modifications: disulfide 1-14 (inferred); also: inserted into an Fc-Loop, Fc, site and spacers not given here

Bridge positions count the residues as written; N and C are the ends. Ends that are not written are not given here.

For the assay, the target named is human mpl receptor (human) (UniProt P40238). Put plainly: cell-based or functional assay.
Turning to B1, the Pb EC50 came out at 0.28 ng/mL.

As for B2, the Pb EC50 was found to be 2.31 ng/mL.

B3 showed a Pb EC50 of 0.27 ng/mL.
